Measurements taken from patent US20060211022A1.

Target: NGFR/EPOR hybrid receptor NECD (NGFR/EPOR chimera D) on 32D/NECDsc-14 cells (human; mouse)
Test: cell-based or functional assay

Sequence of NGFR/EPOR hybrid receptor NECD (NGFR/EPOR chimera D) on 32D/NECDsc-14 cells (human; mouse) (chain, as listed by the source mutant limits assumed): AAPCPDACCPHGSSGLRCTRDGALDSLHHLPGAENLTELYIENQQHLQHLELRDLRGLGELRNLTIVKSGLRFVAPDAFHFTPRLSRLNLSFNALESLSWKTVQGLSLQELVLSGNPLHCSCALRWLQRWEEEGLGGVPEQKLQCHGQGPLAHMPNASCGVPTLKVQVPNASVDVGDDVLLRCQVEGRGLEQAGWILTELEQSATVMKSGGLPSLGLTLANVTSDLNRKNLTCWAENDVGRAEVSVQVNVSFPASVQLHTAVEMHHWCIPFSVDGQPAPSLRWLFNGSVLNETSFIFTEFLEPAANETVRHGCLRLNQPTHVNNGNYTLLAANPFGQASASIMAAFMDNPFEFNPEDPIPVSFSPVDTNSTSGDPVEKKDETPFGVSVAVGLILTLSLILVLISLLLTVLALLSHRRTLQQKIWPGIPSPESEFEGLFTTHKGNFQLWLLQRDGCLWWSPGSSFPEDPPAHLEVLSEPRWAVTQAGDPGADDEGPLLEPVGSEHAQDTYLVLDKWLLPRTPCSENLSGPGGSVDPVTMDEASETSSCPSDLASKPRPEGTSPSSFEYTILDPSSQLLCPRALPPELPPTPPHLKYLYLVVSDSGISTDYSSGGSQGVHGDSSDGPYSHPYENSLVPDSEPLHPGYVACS
Sequence of NGF (P01138 122-241): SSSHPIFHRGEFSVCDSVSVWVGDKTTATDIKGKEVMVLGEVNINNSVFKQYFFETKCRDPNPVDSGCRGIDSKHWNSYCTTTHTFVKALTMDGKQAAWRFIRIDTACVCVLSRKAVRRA

Q: For NGF (ligand), which NGF dose response in serum matrix, 0.02 ng/mL NGF, 1% human serum is on record?
A: The NGF dose response in serum matrix, 0.02 ng/mL NGF, 1% human serum was 947.

Q: And the NGF dose response in serum matrix, 0.02 ng/mL NGF, 2% rat serum?
A: Its NGF dose response in serum matrix, 0.02 ng/mL NGF, 2% rat serum is 1190.

Q: And the NGF dose response in serum matrix, 0.02 ng/mL NGF, 5% cyno serum?
A: Its NGF dose response in serum matrix, 0.02 ng/mL NGF, 5% cyno serum is 2180.

Q: What about the NGF dose response in serum matrix, 0.02 ng/mL NGF, no serum of the same substance?
A: Its NGF dose response in serum matrix, 0.02 ng/mL NGF, no serum is 595.

Q: What about the NGF dose response in serum matrix, 0.07 ng/mL NGF, 1% human serum of the same substance?
A: Its NGF dose response in serum matrix, 0.07 ng/mL NGF, 1% human serum is 1480.

Q: What about the NGF dose response in serum matrix, 0.07 ng/mL NGF, 2% rat serum of the same substance?
A: Its NGF dose response in serum matrix, 0.07 ng/mL NGF, 2% rat serum is 3520.

Q: And the NGF dose response in serum matrix, 0.07 ng/mL NGF, 5% cyno serum?
A: The NGF dose response in serum matrix, 0.07 ng/mL NGF, 5% cyno serum was 5760.

Q: What about the NGF dose response in serum matrix, 0.07 ng/mL NGF, no serum of the same substance?
A: The NGF dose response in serum matrix, 0.07 ng/mL NGF, no serum was 1390.

Q: What about the NGF dose response in serum matrix, 0.21 ng/mL NGF, 1% human serum of the same substance?
A: Its NGF dose response in serum matrix, 0.21 ng/mL NGF, 1% human serum is 5830.

Q: And the NGF dose response in serum matrix, 0.21 ng/mL NGF, 2% rat serum?
A: Its NGF dose response in serum matrix, 0.21 ng/mL NGF, 2% rat serum is 12000.

Q: And the NGF dose response in serum matrix, 0.21 ng/mL NGF, 5% cyno serum?
A: The NGF dose response in serum matrix, 0.21 ng/mL NGF, 5% cyno serum was 15800.

Q: And the NGF dose response in serum matrix, 0.21 ng/mL NGF, no serum?
A: Its NGF dose response in serum matrix, 0.21 ng/mL NGF, no serum is 5420.

Q: And the NGF dose response in serum matrix, 0.62 ng/mL NGF, 1% human serum?
A: Its NGF dose response in serum matrix, 0.62 ng/mL NGF, 1% human serum is 13400.

Q: And the NGF dose response in serum matrix, 0.62 ng/mL NGF, 2% rat serum?
A: The NGF dose response in serum matrix, 0.62 ng/mL NGF, 2% rat serum was 29400.

Q: What about the NGF dose response in serum matrix, 0.62 ng/mL NGF, 5% cyno serum of the same substance?
A: The NGF dose response in serum matrix, 0.62 ng/mL NGF, 5% cyno serum was 32500.

Q: What about the NGF dose response in serum matrix, 0.62 ng/mL NGF, no serum of the same substance?
A: The NGF dose response in serum matrix, 0.62 ng/mL NGF, no serum was 17100.

Q: And the NGF dose response in serum matrix, 1.85 ng/mL NGF, 1% human serum?
A: The NGF dose response in serum matrix, 1.85 ng/mL NGF, 1% human serum was 19500.

Q: And the NGF dose response in serum matrix, 1.85 ng/mL NGF, 2% rat serum?
A: The NGF dose response in serum matrix, 1.85 ng/mL NGF, 2% rat serum was 37700.

Q: What about the NGF dose response in serum matrix, 1.85 ng/mL NGF, 5% cyno serum of the same substance?
A: Its NGF dose response in serum matrix, 1.85 ng/mL NGF, 5% cyno serum is 43100.

Q: What about the NGF dose response in serum matrix, 1.85 ng/mL NGF, no serum of the same substance?
A: Its NGF dose response in serum matrix, 1.85 ng/mL NGF, no serum is 27400.

Q: And the NGF dose response in serum matrix, 5.56 ng/mL NGF, 1% human serum?
A: The NGF dose response in serum matrix, 5.56 ng/mL NGF, 1% human serum was 22200.

Q: And the NGF dose response in serum matrix, 5.56 ng/mL NGF, 2% rat serum?
A: Its NGF dose response in serum matrix, 5.56 ng/mL NGF, 2% rat serum is 43400.

Q: And the NGF dose response in serum matrix, 5.56 ng/mL NGF, 5% cyno serum?
A: The NGF dose response in serum matrix, 5.56 ng/mL NGF, 5% cyno serum was 52200.

Q: What about the NGF dose response in serum matrix, 5.56 ng/mL NGF, no serum of the same substance?
A: The NGF dose response in serum matrix, 5.56 ng/mL NGF, no serum was 35200.

Q: What about the NGF dose response in serum matrix, 16.67 ng/mL NGF, 1% human serum of the same substance?
A: The NGF dose response in serum matrix, 16.67 ng/mL NGF, 1% human serum was 24600.

Q: And the NGF dose response in serum matrix, 16.67 ng/mL NGF, 2% rat serum?
A: The NGF dose response in serum matrix, 16.67 ng/mL NGF, 2% rat serum was 42400.

Q: And the NGF dose response in serum matrix, 16.67 ng/mL NGF, 5% cyno serum?
A: Its NGF dose response in serum matrix, 16.67 ng/mL NGF, 5% cyno serum is 51800.

Q: And the NGF dose response in serum matrix, 16.67 ng/mL NGF, no serum?
A: Its NGF dose response in serum matrix, 16.67 ng/mL NGF, no serum is 39700.

Q: And the NGF dose response in serum matrix, 50.00 ng/mL NGF, 1% human serum?
A: The NGF dose response in serum matrix, 50.00 ng/mL NGF, 1% human serum was 19700.

Q: What about the NGF dose response in serum matrix, 50.00 ng/mL NGF, 2% rat serum of the same substance?
A: The NGF dose response in serum matrix, 50.00 ng/mL NGF, 2% rat serum was 46900.

Q: And the NGF dose response in serum matrix, 50.00 ng/mL NGF, 5% cyno serum?
A: The NGF dose response in serum matrix, 50.00 ng/mL NGF, 5% cyno serum was 56400.

Q: And the NGF dose response in serum matrix, 50.00 ng/mL NGF, no serum?
A: Its NGF dose response in serum matrix, 50.00 ng/mL NGF, no serum is 41000.

Q: And the NGF dose response in serum matrix, 150.00 ng/mL NGF, 1% human serum?
A: The NGF dose response in serum matrix, 150.00 ng/mL NGF, 1% human serum was 18600.

Q: And the NGF dose response in serum matrix, 150.00 ng/mL NGF, 2% rat serum?
A: Its NGF dose response in serum matrix, 150.00 ng/mL NGF, 2% rat serum is 49500.

Q: And the NGF dose response in serum matrix, 150.00 ng/mL NGF, 5% cyno serum?
A: Its NGF dose response in serum matrix, 150.00 ng/mL NGF, 5% cyno serum is 62100.

Q: What about the NGF dose response in serum matrix, 150.00 ng/mL NGF, no serum of the same substance?
A: Its NGF dose response in serum matrix, 150.00 ng/mL NGF, no serum is 44100.

Q: And the [3H]-thymidine counts, NECDsc-14 NGF-dependent, 0.02 ng/ml?
A: Its [3H]-thymidine counts, NECDsc-14 NGF-dependent, 0.02 ng/ml is 1960 counts.

Q: What about the [3H]-thymidine counts, NECDsc-14 NGF-dependent, 0.07 ng/ml of the same substance?
A: The [3H]-thymidine counts, NECDsc-14 NGF-dependent, 0.07 ng/ml was 4690 counts.

Q: And the [3H]-thymidine counts, NECDsc-14 NGF-dependent, 0.21 ng/ml?
A: Its [3H]-thymidine counts, NECDsc-14 NGF-dependent, 0.21 ng/ml is 8030 counts.

Q: What about the [3H]-thymidine counts, NECDsc-14 NGF-dependent, 0.62 ng/ml of the same substance?
A: The [3H]-thymidine counts, NECDsc-14 NGF-dependent, 0.62 ng/ml was 16800 counts.

Q: And the [3H]-thymidine counts, NECDsc-14 NGF-dependent, 1.85 ng/ml?
A: The [3H]-thymidine counts, NECDsc-14 NGF-dependent, 1.85 ng/ml was 22400 counts.

Q: And the [3H]-thymidine counts, NECDsc-14 NGF-dependent, 5.56 ng/ml?
A: The [3H]-thymidine counts, NECDsc-14 NGF-dependent, 5.56 ng/ml was 24200 counts.

Q: What about the [3H]-thymidine counts, NECDsc-14 NGF-dependent, 16.67 ng/ml of the same substance?
A: Its [3H]-thymidine counts, NECDsc-14 NGF-dependent, 16.67 ng/ml is 22900 counts.

Q: And the [3H]-thymidine counts, NECDsc-14 NGF-dependent, 50.00 ng/ml?
A: Its [3H]-thymidine counts, NECDsc-14 NGF-dependent, 50.00 ng/ml is 21600 counts.

Q: What about the [3H]-thymidine counts, NECDsc-14 NGF-dependent, 150.00 ng/ml of the same substance?
A: The [3H]-thymidine counts, NECDsc-14 NGF-dependent, 150.00 ng/ml was 20900 counts.
